Test results: US20150086557A1, “NOVEL INTEGRIN alpha9 beta1 LIGAND AND USES THEREOF” (OSAKA UNIVERSITY, priority 2012, published 2015)

How the values were obtained:
integrin α9β1 = molecular target: T1, integrin α9β1 (Homo sapiens, UniProt P05556+Q13797); assay: Direct integrin binding assay with recombinant integrin α9β1
T1 construct: A cDNA encoding the extracellular region of human integrin α9; An expression vector for the extracellular region of integrin β1; ACID coiled-coil (Velcro) peptide; FLAG; BASE coiled-coil (Velcro) peptide; made in house; host or cells: FreeStyle 293 Expression System (293-F cells)
T1 sequence (Q13797 30-981 limits assumed): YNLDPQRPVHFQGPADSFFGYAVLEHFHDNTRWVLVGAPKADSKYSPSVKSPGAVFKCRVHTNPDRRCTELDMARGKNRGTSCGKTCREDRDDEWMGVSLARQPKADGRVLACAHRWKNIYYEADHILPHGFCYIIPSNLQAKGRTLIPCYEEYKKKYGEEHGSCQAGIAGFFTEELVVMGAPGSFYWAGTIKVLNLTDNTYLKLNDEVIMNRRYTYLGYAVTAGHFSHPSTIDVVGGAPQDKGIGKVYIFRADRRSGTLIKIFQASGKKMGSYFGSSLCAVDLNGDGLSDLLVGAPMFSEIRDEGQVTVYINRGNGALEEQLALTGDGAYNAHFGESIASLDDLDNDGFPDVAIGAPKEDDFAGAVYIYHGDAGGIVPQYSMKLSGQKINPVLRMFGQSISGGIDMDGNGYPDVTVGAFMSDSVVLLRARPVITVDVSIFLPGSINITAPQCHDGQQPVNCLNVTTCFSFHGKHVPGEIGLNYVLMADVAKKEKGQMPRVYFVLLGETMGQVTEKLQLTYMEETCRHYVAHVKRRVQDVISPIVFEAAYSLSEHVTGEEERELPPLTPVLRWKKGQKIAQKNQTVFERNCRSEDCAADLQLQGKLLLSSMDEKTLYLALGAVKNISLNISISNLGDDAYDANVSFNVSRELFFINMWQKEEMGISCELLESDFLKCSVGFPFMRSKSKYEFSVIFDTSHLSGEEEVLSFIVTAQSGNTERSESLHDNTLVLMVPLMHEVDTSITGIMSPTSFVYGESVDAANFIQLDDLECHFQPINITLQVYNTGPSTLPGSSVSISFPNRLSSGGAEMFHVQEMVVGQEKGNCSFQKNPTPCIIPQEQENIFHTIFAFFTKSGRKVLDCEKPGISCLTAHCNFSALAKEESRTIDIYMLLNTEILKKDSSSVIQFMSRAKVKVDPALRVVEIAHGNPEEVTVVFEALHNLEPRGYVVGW
T1 sequence (P05556 21-728 limits assumed): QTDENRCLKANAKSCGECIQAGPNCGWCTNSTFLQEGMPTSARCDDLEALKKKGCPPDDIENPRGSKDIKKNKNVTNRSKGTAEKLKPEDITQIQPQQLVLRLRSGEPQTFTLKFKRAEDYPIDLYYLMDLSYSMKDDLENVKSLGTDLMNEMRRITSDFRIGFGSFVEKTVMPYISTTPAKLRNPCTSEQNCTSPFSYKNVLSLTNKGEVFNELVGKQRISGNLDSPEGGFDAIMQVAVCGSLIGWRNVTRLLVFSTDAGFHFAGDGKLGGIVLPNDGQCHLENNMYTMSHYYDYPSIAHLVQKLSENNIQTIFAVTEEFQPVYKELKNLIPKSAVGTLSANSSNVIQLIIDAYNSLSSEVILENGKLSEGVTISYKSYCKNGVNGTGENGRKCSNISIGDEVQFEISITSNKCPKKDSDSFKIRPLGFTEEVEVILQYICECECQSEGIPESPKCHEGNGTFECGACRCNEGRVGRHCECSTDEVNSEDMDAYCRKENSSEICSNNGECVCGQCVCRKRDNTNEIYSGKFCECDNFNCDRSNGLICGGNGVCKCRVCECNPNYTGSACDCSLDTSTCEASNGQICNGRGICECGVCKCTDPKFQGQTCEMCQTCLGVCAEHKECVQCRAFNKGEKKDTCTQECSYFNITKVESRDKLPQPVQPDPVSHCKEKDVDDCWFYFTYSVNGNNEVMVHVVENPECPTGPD
Excerpt: A cDNA encoding the extracellular region of human integrin α9 was amplified by RT-PCR from total RNA extracted from RD cells and cloned into pBluescript KS(+). After verification of the nucleotide sequence, an error-free cDNA fragment was inserted into pcDNA-ACID-FLAG (Nishiuchi, R., Takagi, J., Hayashi, M., Ido, H., Yagi, Y., Sanzen, N., Tsuji, T., Yamada, M., and Sekiguchi, K. (2006) Matrix Biol. 25, 189-197). An expression vector for the extracellular region of integrin β1 was provided by Dr. Junichi Takagi (Takagi, J., Erickson, H. P., and Springer, T. A. (2001) Nat. Struct. Biol. 8, 412-416). The recombinant integrins were produced using the Freestyle™ 293 Expression System (Invitrogen) and purified as described in the above-mentioned publication Matrix Biol. 25, 189-197, (2006).
An integrin binding assay was performed as described in the above-mentioned publication Matrix Biol. 25, […], (2006). In some experiments, integrins were preincubated with synthetic peptides at various concentrations to evaluate the inhibitory activities of the synthetic peptides. The apparent dissociation constants were determined as described in Nishiuchi, R., Murayama, O., Fujiwara, H., Gu, J., Kawakami. T., Aimoto, S., Wada, Y., and Sekiguchi, K. (2003) J. Biochem, 134, 497-504.
To corroborate the role of integrin α9β1 as an adhesion receptor for polydom, a direct integrin binding assay was performed, using recombinant integrin α9β1. Plates were coated with full-length polydom, pol-N, pol-C, plasma fibronectin (pFN) or cellular fibronectin (cFN), and recombinant integrin α9β1 was added and allowed to bind thereto in the presence of 1 mM MnCl2 or 10 mM EDTA. BSA was used as a negative control. The bound integrin was quantified using a biotinylated anti-Velcro antibody and HRP-conjugated streptavidin.
Integrin α9β1 is known to bind to the third fibronectin type III domain of tenascin-C (TNfn3) and the osteopontin N-terminal half (OPN-Nhalf). These integrin α9β1 ligands were recombinantly expressed as GST fusion proteins and then purified. In the GST fusion proteins, the RGD cell-adhesive motifs were replaced with RAA to nullify their abilities to interact with RGD-binding integrins, such as those containing the αv subunit, Microtiter plates were coated with pol-C (10 nM), GST-TNfn3-RAA (100 nM) or GST-OPN-Nhalf-RAA (100 nM), and integrin α9β1 was added and allowed to bind thereto in the presence of 1 mM MnCl2.
To locate the integrin α9β1-binding site within polydom, a series of five N-terminal deletion mutants of polydom (pol-C, ΔEGF6, ΔPTX, ΔCCP20 and ΔCCP21; see FIG. 9) were constructed. Their binding activities for integrin α9β1 were evaluated in the presence of 1 mM MnCl2 or 10 mM EDTA using microtiter plates coated with these recombinant proteins (10 nM).
Among the 34 CCP domains within polydom, CCP21 is unique because it contains about 40 extra amino acids as compared with the other CCP domains. An assay to examine whether this extra region (hereinafter referred to as “extra segment”) within CCP21 is involved in binding to integrin α9β1 was performed, Microtiter plates were coated with a GST-CCP21 fusion protein, a D2628-S2664 deletion mutant of the GST-CCP21 fusion protein (CCP21ΔD2628-S2664), D2628-S2664 alone (see FIG. 11), pol-C or GST alone, and integrin α9β1 was added and allowed to bind thereto in the presence of 1 mM MnCl2 or 10 mM EDTA.
To further narrow down the region responsible for binding to integrin α9β1, the extra 37-amino acid segment of CCP21 was divided into smaller segments, of which GST fusion proteins were produced. Microtiter plates were coated with eight kinds of segments including CCP21, pol-C and GST alone, and integrin α9β1 was added and allowed to bind thereto in the presence of 1 mM MnCl2 or 10 mM EDTA.
To identify the residues involved in binding to Integrin α9β1, alanine scanning mutants and N-terminal or C-terminal deletion mutants of D2634-L2645 were produced as GST fusion proteins. […]

cardiac stem cells = assay: Colony forming ability of GFP label-retaining cells (cardiac stem cells); assay type: cell-based, mouse; conditions: 100 nM coating, 1×10^4 cells/well, 2 weeks, FIG. 26
Excerpt: Tissue stem cells are known to generally have a very prolonged, cell cycle and thus allow labeling compounds incorporated into DNA and the cell interior to remain stable for a long period of time without decay along with cell division, This nature can be advantageously used to identify and separate tissue stem cells by short-term labeling or cells with a nucleotide analog such as bromodeoxyuridine (BrdU) or a fusion protein of green fluorescent protein (hereinafter referred to as “GFP”) and a nucleoprotein, histone, followed by selection of cells retaining the label for a long period of time (label-retaining cells). In this experiment, with the use of a tetracycline-inducible expression system in combination with the ROSA26 promoter, a fusion protein of GFP and histone H2B (H2B-GFP) was expressed in the heart of a mouse for 2 weeks starting 1 week before birth, and 6 weeks later, cardiac stem cells were separated as GFP label-retaining cells from the heart.
To explore whether cardiac stem cells proliferate on a polydom-coated plate, colony formation was measured, as an indicator of proliferation. A Falcon 6-well plate was coated with 800 μl/well of 100 nM polydom or fibronectin at 4° C. overnight. GFP label-retaining cells were collected by FACSAria and suspended in IMDM containing 10% fetal calf serum. […] After drying, the number of colonies was counted under a microscope.

polydom: recombinant mouse SVEP1 (SEQ ID NO: 2), ECM protein, ligand for integrin α9β1
binding of recombinant integrin α9β1 to coated protein (integrin α9β1; 1 mM MnCl2, FIG. 7): bound
binding of recombinant integrin α9β1 in the presence of EDTA (integrin α9β1; 10 mM EDTA, FIG. 7): completely abrogated
colony forming activity (colony count relative to the number of cells plated) (cardiac stem cells): about 0.8%
